Reference: patent publication US20230414780A1 (VECT HORUS, published 2023)
Numbering of substitutions follows the chain as printed.

Columns and labels:
[1] = target: T1, human transferrin receptor (hTfR) fused to EGFP, on CHO cells (human, UniProt P02786 1-760); test: apparent Kd, cell-based assay
T1 construct: whole, on cells; also called human TfR; CHO-hTfR-EGFP; not shown: EGFP from pEGFP-C1 vector, fused to the N-terminal (intracellular) end of hTfR

[2] = target: T1, human transferrin receptor (hTfR) fused …; test: flow cytometry on CHO-hTfR-EGFP cells, 1 hr at 4 C, Alexa647 anti-hFc; apparent Kd, mean ± SEM of 3 experiments
Description: (§1) FIGS. 8A-8B: Apparent Kd determination of VHH-Fcs and Fc-VHHs on hTfR- and mTfR-expressing CHO cell lines. (A) CHO-hTfR-EGFP and CHO-mTfR-EGFP cells were incubated 1 hr at 4° C. with various concentrations of VHH-Fcs or Fc-VHHs, detected with an Alexa647-conjugated anti-hFc antibody (1/400). Measurements were performed using flow cytometry. The ratio of fluorescence intensity for each point was normalized with the corresponding EGFP signal (receptor expression) and gave rise to the arbitrary unit. Data are presented as mean±SEM of 3 independent experiments. (B) Characteristics of selected VHH-Fcs and Fc-VHHs: Molecular Weight (Da); Apparent Kd on human TfR (nM); Apparent Kd on mouse TfR (nM). Data are presented as mean±SEM of 3 independent experiments.
(§2) The binding properties of VHH-Fc and Fc-VHH fusion proteins with an affinity for the TfR were tested in flow cytometry experiments, and apparent affinity (K_{d app}) were determined. All experiments were performed in 96 well plates using 2-3×10⁵ cells/well, at 4° C. with shaking. […] After washes, cells were incubated for 1 hr with an Alexa647-conjugated anti-hFc antibody (Jackson ImmunoResearch). After 3 last washes and cells resuspension in PBS, fluorescence was immediately measured using a MACSQuant flow cytometer (Miltenyi), and results were analyzed with the MACSQuant software. […] The VHH-Fc and Fc-VHH K_{d app} were calculated using GraphPad Prism software (FIG. 8-B).

[3] = target: T2, mouse transferrin receptor (mTfR) fused to EGFP, on CHO cells (mouse, UniProt Q62351 1-763); test: flow cytometry on CHO-mTfR-EGFP cells, 1 hr at 4 C, Alexa647 anti-hFc; apparent Kd, mean ± SEM of 3 experiments
T2 construct: whole, on cells; also called mouse TfR; CHO-mTfR-EGFP; not shown: EGFP
T2 sequence (Q62351 whole entry, the tested form may be a part): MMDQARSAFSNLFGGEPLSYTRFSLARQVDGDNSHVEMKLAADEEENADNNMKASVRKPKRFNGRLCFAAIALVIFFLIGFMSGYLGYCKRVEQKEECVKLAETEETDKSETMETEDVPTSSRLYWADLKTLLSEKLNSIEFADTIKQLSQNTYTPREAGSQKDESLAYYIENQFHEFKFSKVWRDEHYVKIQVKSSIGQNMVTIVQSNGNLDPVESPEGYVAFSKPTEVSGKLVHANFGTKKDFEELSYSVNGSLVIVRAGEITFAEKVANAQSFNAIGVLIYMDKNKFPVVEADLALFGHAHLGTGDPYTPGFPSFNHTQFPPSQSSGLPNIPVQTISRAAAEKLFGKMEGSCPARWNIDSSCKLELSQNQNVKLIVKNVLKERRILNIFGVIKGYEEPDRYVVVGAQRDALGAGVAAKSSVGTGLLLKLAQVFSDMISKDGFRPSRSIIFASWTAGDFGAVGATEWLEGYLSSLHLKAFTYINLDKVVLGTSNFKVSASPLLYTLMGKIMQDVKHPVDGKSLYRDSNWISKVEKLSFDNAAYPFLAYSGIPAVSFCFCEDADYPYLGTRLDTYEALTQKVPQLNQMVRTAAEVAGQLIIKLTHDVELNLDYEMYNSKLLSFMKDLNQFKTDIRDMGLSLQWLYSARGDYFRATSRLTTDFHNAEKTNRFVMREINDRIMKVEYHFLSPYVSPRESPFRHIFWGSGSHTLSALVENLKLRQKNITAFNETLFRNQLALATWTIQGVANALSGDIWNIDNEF
Description: as §1, §2

[4] = target: T1, human transferrin receptor (hTfR) fused …; test: apparent Kd, flow cytometry, CHO cells
Description: All experiments were performed in 96 well plates using 2×10⁵ cells/well, at 4° C. with shaking. CHO cell lines stably expressing the hTfR or the mTfR fused to EGFP or CHO WT cells were saturated with PBS/BSA 2% solution during 30 min to avoid non-specific binding, followed by incubation with purified VHHs at concentrations ranging from 50 μM to 5 μM for 1 hr. After one wash in PBS/BSA 2%, cells were incubated for 1 hr with an anti-6His tag antibody (mouse), washed twice with PBS/BSA 2%, and incubated for 45 min with an Alexa647-conjugated anti-mouse secondary antibody. After two last washes in PBS/BSA 2%, cells were fixed by incubation for 15 min with PBS/PFA 2%, washed once with PBS and finally resuspended in PBS and stored at 4° C. Fluorescence levels were assessed using an Attune NxT Flow Cytometer (Thermo Fisher Scientific). […] No labeling of the CHO WT control cells was detected with all the tested VHHs (not shown). The VHH K_{d app} were calculated using GraphPad Prism software (FIG. 11-B; 12-B).

[5] = target: T2, mouse transferrin receptor (mTfR) fused …; test: cell-based flow cytometry assay on mTfR-expressing cells (as in Example XI)
[6] = target: T2, mouse transferrin receptor (mTfR) fused …; test: cell-based flow cytometry assay on mTfR-expressing cells (as in Example XI); Kd/app
[7] = target: T3, human TfR ectodomain fused to a mouse IgG1 Fc fragment (human, UniProt P02786 89-760); test: SPR, kinetic
T3 construct: extracellular domain; ectodomain fused to the N-terminal end of the Fc, made in-house; not shown: mouse IgG1 Fc fragment
T3 sequence (P02786 89-760): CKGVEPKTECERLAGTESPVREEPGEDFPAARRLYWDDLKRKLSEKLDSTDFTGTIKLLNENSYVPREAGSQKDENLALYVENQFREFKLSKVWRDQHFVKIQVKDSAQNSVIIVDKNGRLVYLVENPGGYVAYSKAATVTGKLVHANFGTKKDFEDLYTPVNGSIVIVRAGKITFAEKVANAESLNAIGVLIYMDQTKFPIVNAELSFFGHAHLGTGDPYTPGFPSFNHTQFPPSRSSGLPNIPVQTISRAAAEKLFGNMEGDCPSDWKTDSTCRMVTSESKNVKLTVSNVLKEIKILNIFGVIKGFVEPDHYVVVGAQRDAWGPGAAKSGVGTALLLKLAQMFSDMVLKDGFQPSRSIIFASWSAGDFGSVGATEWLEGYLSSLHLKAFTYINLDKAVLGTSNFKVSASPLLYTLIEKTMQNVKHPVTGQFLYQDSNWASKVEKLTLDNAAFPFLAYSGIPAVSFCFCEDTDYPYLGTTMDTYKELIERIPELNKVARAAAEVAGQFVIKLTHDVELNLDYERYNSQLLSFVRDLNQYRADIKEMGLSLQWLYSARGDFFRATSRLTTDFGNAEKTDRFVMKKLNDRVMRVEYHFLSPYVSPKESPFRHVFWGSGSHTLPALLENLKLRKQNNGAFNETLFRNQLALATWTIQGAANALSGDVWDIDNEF
Summary of the method: (§3)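 TfR–mouse Fc fusions, produced in-house, captured on HC 1500M or CM5 chips either directly or via immobilized anti-mouse IgG. VHHs injected in single-cycle or multiple-cycle kinetic mode on Biacore T200.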

[8] = target: T4, mouse TfR ectodomain fused to a mouse IgG1 Fc fragment (mouse, UniProt Q62351 89-763); test: SPR, kinetic
T4 construct: extracellular domain; not shown: mouse IgG1 Fc fragment
T4 sequence (Q62351 89-763): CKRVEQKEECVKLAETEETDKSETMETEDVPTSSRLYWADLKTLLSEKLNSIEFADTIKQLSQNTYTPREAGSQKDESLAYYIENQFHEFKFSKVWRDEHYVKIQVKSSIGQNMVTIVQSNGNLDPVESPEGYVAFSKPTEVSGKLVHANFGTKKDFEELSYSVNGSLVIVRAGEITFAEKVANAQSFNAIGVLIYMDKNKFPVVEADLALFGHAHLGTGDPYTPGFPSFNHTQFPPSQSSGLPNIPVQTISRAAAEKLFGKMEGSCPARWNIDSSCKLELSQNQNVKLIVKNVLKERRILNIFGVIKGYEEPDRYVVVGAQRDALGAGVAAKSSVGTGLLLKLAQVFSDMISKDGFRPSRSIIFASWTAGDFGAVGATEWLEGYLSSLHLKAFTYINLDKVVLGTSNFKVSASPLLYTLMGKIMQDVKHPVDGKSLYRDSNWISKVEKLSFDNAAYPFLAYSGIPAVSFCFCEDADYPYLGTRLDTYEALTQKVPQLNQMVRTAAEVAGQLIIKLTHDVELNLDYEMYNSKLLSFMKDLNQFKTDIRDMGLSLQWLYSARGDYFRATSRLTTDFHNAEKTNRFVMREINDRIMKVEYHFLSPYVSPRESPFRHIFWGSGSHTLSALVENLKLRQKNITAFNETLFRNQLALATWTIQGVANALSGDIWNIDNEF
Summary of the method: as §3

[9] = target: T5, rhesus monkey TfR ectodomain fused to a mouse IgG1 Fc fragment (rhesus monkey, UniProt I0FKY7 89-760); test: SPR, kinetic
T5 construct: extracellular domain; not shown: mouse IgG1 Fc fragment
Summary of the method: as §3

[10] = target: T4, mouse TfR ectodomain fused to a mouse …; test: SPR, at equilibrium
Summary of the method: as §3

[11] = target: T1, human transferrin receptor (hTfR) fused …; test: apparent Kd, flow cytometry, CHO cells; remark: listed apart in the source
Summary of the method: (§4)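 CHO cells expressing TfR-EGFP fusions, blocked in PBS/BSA 2%, then incubated with increasing VHH concentrations for 1 hr at 4° C. Bound VHH detected via anti-6His antibody and Alexa647 secondary, cells PFA-fixed, read by flow cytometry. Apparent Kd from nonlinear fit.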

[12] = target: T2, mouse transferrin receptor (mTfR) fused …; test: apparent Kd, flow cytometry, CHO cells
Summary of the method: as §4

[13] = target: T6, rhesus monkey transferrin receptor (rhTfR) fused to EGFP, on CHO cells (rhesus monkey); test: apparent Kd, flow cytometry, CHO cells
T6 construct: whole, on cells; also called rhesus monkey TfR
Summary of the method: as §4

[14] = target: T7, murine TfR expressed by murine neuroblastoma Neuro-2a cells (mouse, UniProt Q62351 1-763); test: competition with the fluorescent reference VHH on Neuro-2a cells as in FIG. 25; Ki/app on mTfR, free VHH
T7 construct: whole, on cells; also called mTfR (N2a cells)
T7 sequence (Q62351 whole entry): as the sequence (Q62351 whole entry, the tested form may be a part) above
Description: (§5) The binding of VHH-Oligo and VHH-hFc-Oligo conjugates to mTfR was evaluated using a competition assay on living cells expressing the receptor of interest, namely murine neuroblastoma Neuro-2a cells (N2a). N2a cells were grown in Dulbecco's Modified Eagle Medium (DMEM) GlutaMAX supplemented with 10% v/v FBS in 5% CO₂ at 37° C. Cells were seeded two days before experiments in 96-well plates at a density of 50.000 cells/well. […] Resuspended cells were transferred in a 96-deepwell plate (V-bottom) containing 1% fetal bovine serum (FBS)/0.02% sodium azide in phosphate-buffered saline (PBS) and then centrifuged for 5 min at 2000 rpm at 4° C. After removing the supernatant, 5 mM EDTA in D-PBS and 4% paraformaldehyde (PFA) (v/v 1:1) were added into wells to fix cells for 15 min at room temperature. PFA was removed by centrifugation (5 min, 3000 rpm, 4° C.) and cells were resuspended with 5 mM EDTA in D-PBS. Then the cellular A680-associated fluorescence signal was quantified using an Attune™ NxT flow cytometer (Thermo Fisher Scientific) equipped with Attune™ NxT v3.1.2. Experimental data (experimental triplicates) were fitted with GraphPad Prism® software using a nonlinear fit to determine the apparent Ki inhibition constants.

[15] = target: T7, murine TfR expressed by murine …; test: competition with C5-Alexa680 (100 nM) on living Neuro-2a cells, 3 hrs at 37 C, flow cytometry; Ki/app, mean ± SD
Description: as §5

[16] = target: T1, human transferrin receptor (hTfR) fused …; test: flow cytometry on CHO-hTfR-EGFP cells, 1 hr at 4 C, anti-6His + Alexa647 anti-mouse; ratio to background fluorescence
Description: FIGS. 15A-15H: In vitro gene silencing activity of VHH-siGFPst1 bioconjugates. […] CHO-hTfR-EGFP cells were incubated 1 hr at 4° C. with various concentrations of the indicated compounds. Detection of VHHs was performed using a primary mouse anti-6His (1/1000) and an Alexa647-conjugated anti-mouse secondary antibody (1/400). Measurements of cell-surface signal associated to VHH were performed using flow cytometry. The results are expressed as the ratio of Alexa647-associated fluorescence intensity of test compounds to that of background fluorescence. […] The total fluorescence associated to the EGFP protein was then quantified using flow cytometry and rationalized to that of untreated (control) cells (set at 100%) *** p≤0.001. […] The total fluorescence associated with the EGFP protein was then quantified using flow cytometry and rationalized to that of untreated (control) cells (set at 100%). […] CHO-hTfR-EGFP cells were incubated with the indicated compounds at 1 μM during 120 hrs at 37° C. Data were processed and analyzed as described in (B). *** p≤0.001 vs. untreated cells. […] The total fluorescence associated with the EGFP protein was then quantified using flow cytometry and rationalized to that of untreated (control) cells (set at 100%).

T1 sequence (P02786 whole entry, the tested form may be a part): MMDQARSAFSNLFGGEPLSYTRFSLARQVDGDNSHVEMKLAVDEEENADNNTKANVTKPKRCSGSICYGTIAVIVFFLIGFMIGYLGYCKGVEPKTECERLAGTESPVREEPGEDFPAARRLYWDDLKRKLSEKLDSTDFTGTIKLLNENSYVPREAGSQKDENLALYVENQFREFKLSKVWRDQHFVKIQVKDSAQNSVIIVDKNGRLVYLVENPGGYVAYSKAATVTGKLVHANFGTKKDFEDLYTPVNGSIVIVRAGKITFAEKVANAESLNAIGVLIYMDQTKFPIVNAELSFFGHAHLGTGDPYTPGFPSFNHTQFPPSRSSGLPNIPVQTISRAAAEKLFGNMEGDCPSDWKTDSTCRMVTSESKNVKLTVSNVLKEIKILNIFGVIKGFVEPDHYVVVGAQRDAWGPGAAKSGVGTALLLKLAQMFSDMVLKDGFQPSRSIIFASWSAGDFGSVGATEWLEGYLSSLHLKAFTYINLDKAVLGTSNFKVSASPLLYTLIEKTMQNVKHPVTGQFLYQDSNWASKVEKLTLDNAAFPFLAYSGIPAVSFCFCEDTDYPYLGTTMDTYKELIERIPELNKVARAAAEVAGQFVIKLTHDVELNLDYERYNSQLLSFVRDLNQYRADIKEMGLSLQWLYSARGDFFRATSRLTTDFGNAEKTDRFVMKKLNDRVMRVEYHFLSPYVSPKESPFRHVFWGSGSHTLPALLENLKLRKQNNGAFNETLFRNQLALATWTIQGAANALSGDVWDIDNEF

B1: C12b-NT(8-13) (VHH)
VHH: QVQLVQSGGGLVQPGGSLRLSCAASGFTFSAYAMSWVRQAPGKGRELVASISRTGDGTYYADGMKGRFTISRDNAENTVSLQINSLKPEDTAIYYCGAGINPTKYWGQGTQVTVSS
Binder B1 has a Kd [1] of 1860 nM.

B2: Fc-VHH A (Fc fusion)
VHH: EVQLVESGGGVVQPGGSLKLSCVASGTDFSINFIRWYRQAPGKQREFVAGFTATGNTNYADSMKGRFTISRDNTKNAVYLQIDSLKPEDTAVYYCYMLDKWGQGTQVTVSS
modifications: Genetic fusion with the VHH at the C-terminus of a human IgG1 Fc. It forms a homodimer, so it is bivalent.
notes: not shown: Human IgG1 Fc of the pINFUSE-IgG1-Fc2 vector (InvivoGen), N-terminal to the VHH, and any junction or linker residues
B2 showed a Kd [2] of 1.3 nM and a Kd [3] of 22 nM.

B3: C5h18-NT(8-13) (VHH)
VHH: B2 VHH with Q44G, R45L, M63V, T74A, A77T, V78L, I82M, D83N, K86R
Work on B3 yielded a Kd [1] of 16.8 nM.

B4: VHH A12 (C5^V12) (VHH)
VHH: B2 VHH with F51I
B4 gave a Kd [4] of 363 nM.

B5: 13C3-HC-C5h20 (antibody)
heavy: QVQLQQSGPELVRPGVSVKISCKGSGYTFTDYAMHWVKQSHAKSLEWIGVISTKYGKTNYNQKFKGKATMTVDKSSSTAYMELARLTSEDSAIYYCARGDDGYSWGQGTSVTVSSAKTTPPSVYPLAPGSAAQTNSMVTLGCLVKGYFPEPVTVTWNSGSLSSGVHTFPAVLQSDLYTLSSSVTVPSSTWPSETVTCNVAHPASSTKVDKKIVPRDCGCKPCICTVPEVSSVFIFPPKPKDVLTITLTPKVTCVVVDISKDDPEVQFSWFVDDVEVHTAQTQPREEQFNSTFRSVSELPIMHQDWLNGKEFKCRVNSAAFPAPIEKTISKTKGRPKAPQVYTIPPPKEQMAKDKVSLTCMITDFFPEDITVEWQWNGQPAENYKNTQPIMDTDGSYFVYSKLNVQKSNWEAGNTFTCSVLHEGLHNHHTEKSLSHSPGGGGGMAEVQLVESGGGVVQPGGSLRLSCAASGTDFSINFIRWYRQAPGKGLEFVAGFTATGNTNYADSVKGRFTISRDNAKNAVYLQMNSLRPEDTAVYYCYMLDKWGQGTQVTVSSAAA
light: DVVMTQTPLSLPVSLGDQASISCRSGQSLVHSNGNTYLHWYLQKPGQSPKLLIYTVSNRFSGVPDRFSGSGSGSDFTLKISRVEAEDLGVYFCSQNTFVPWTFGGGTKLEIKRADAAPTVSIFPPSSEQLTSGGASVVCFLNNFYPKDINVKWKIDGSERQNGVLNSWTDQDSKDSTYSMSSTLTLTKDEYERHNSYTCEATHKTSTSPIVKSFNRNEC
notes: homodimeric fusion, bivalent for TfR
B5 was tested, and the Bmax [5] was 1470 RFI and the Kd [6] was 22.3 nM.

B6: 13C3-HC-C5h24 (antibody)
heavy: B5 heavy with V507M, A521T, V522L
light: B5 light
Binder B6 has a Bmax [5] of 781 RFI and a Kd [6] of 20.2 nM.

B7: Fc-VHH B (Fc fusion)
VHH: EVQLVESGGGVVQPGGSLRLSCAASGEIFSINFMRWYRQAPGKQREWVAGFTRDGSTNYPDSAKGRFTISRDNAKNTVYLQIDSLKPEDTAVYYCYMLDTWGQGTQVTVSS
modifications: Genetic fusion with the VHH at the C-terminus of a human IgG1 Fc. It forms a homodimer, so it is bivalent.
notes: as for B2
B7 gave a Kd [2] of 1.5 nM and a Kd [3] of 51 nM.

B8: VHH B (B8) (VHH)
VHH: B7 VHH
B8 was tested, and the Kd [7] was 0.0559 nM, the koff [7] was 3.06e-05 s⁻¹ and the kon [7] was 677000 M⁻¹ s⁻¹. The Kd [8] was 27 nM, the koff [8] was 0.0243 s⁻¹ and the kon [8] was 1.23e+06 M⁻¹ s⁻¹. For the same binder, the Kd [9] was 0.0951 nM, the koff [9] was 9.54e-05 s⁻¹ and the kon [9] was 1e+06 M⁻¹ s⁻¹. The Kd [10] was 37.5 nM, the Kd [11] was 1.7 nM and the Kd [12] was 7.5 nM. The Kd [13] was 2.2 nM, the Ki [14] was 56.2 nM and the Ki [15] was 56.2 nM. For the same binder, the “EC50 (read off the curve)” value [16] was roughly 4 nM.

B9: B8-MALAT1-ASO (VHH, not shown: small tags and cut ends)
VHH: B7 VHH
modifications: MALAT1 gapmer antisense oligonucleotide linked to the VHH
notes: also called VHH-MALAT1-ASO wherein VHH is B8
B9 gave a Ki [15] of 60.9 nM.
